The experiment has as its target AAV-DJ capsid proteins VP2 and VP3 (capsid shell) (adeno-associated virus, AAV-DJ (engineered capsid)). Nature of the experiment: co-sedimentation.

Turning to “AAV-DJ capsid protein VP1 (wild type) (natural protein)”, the VP1 copies per 60-mer capsid (VP1 copies per 60-mer capsid) was found to be 3.
